Test system: peptide library, one residue held at a place counted from the S/T acceptor
Experiment: relative phosphorylation of the sub-library (ratio to the mean residue at this position); higher = residue favoured
Conditions: human
How it was run: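 In 384-well plates, purified recombinant kinases (human or orthologue constructs) were incubated for 90 min under kinase-specific conditions with 50 μM biotinylated degenerate peptide sub-libraries and 50 μM ATP spiked with γ-32P-ATP. Each sub-library fixed a single residue at one position around a central Ser/Thr. Relative sub-library phosphorylation, measured by phosphorimaging and densitometry of streptavidin membrane spots, is given as a ratio to the mean residue at that position.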

STK25, construct: Full length, sequence (O00506 whole entry, looked up): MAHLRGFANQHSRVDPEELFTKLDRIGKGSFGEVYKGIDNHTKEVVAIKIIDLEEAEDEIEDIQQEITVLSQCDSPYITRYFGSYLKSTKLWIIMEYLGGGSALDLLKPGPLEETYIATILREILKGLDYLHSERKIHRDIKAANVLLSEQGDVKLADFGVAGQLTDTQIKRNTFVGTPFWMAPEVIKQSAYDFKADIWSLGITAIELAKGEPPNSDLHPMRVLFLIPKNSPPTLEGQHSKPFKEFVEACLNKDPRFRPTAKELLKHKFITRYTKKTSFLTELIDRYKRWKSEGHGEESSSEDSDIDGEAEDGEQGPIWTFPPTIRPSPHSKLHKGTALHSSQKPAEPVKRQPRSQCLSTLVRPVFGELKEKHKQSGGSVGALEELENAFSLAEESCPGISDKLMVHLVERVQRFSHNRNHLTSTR
IKBKB, construct: Full length, sequence (O14920 whole entry, looked up): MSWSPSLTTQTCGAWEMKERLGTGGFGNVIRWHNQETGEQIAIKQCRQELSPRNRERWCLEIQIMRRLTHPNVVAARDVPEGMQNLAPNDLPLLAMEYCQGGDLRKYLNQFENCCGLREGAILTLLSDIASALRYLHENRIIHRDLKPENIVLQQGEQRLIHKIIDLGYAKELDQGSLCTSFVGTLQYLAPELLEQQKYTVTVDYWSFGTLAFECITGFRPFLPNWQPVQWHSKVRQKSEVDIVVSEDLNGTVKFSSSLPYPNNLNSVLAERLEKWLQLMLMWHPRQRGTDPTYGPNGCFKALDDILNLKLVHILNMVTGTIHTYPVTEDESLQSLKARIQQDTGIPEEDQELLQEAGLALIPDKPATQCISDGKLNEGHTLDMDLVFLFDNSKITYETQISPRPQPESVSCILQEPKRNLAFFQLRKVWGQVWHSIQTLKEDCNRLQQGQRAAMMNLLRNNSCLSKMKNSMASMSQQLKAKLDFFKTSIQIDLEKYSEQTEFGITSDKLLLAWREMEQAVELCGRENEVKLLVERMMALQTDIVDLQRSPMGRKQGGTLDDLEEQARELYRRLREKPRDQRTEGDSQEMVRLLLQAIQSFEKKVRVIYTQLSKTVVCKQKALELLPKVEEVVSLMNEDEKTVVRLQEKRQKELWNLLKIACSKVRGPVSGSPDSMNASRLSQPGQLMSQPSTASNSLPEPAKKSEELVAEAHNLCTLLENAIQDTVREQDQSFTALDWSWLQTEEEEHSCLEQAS

PRKCB, construct: Full length (from UniProt P05771)
relative phosphorylation
Conditions	at +1	at +2	at +3	at +4	at -1	at -2	at -3	at -4	at -5
A fixed	0.614	0.584	0.815	1.08	1.16	1.17	0.836	1.3	1.35
D fixed	0.203	0.219	0.509	0.604	0.516	0.531	0.379	0.694	0.677
E fixed	0.288	0.177	0.503	0.546	0.489	0.468	0.438	0.654	0.676
F fixed	0.881	0.35	0.602	0.636	0.435	0.597	0.639	0.72	0.947
G fixed	0.585	0.365	1.09	1.22	1.65	1.37	0.95	1.57	1.45
H fixed	0.861	1.39	1.36	1.37	1.24	1.23	1.47	1.17	1.26
I fixed	1.05	0.413	0.529	0.559	0.214	0.323	0.214	0.393	0.452
K fixed	2.49	3.97	2.36	2.46	2.15	1.93	1.91	1.64	1.67
L fixed	0.864	0.469	0.796	0.644	0.563	0.448	0.371	0.517	0.71
M fixed	1.61	0.604	0.68	0.705	0.779	0.662	0.606	0.898	0.684
N fixed	0.691	0.909	1.09	1.13	1.34	1.52	1.07	1.11	1.04
P fixed	0.289	0.305	0.606	1.27	1.09	0.87	0.983	1.2	1.22
Q fixed	1.45	0.727	1.1	1.2	1.04	1.47	1.08	1.24	1
R fixed	2.18	4.58	2.22	1.46	2.25	2.3	4.21	1.78	1.44
V fixed	1.11	0.443	0.627	0.683	0.496	0.462	0.354	0.504	0.695
W fixed	0.813	0.627	1.03	0.83	0.556	0.933	0.68	0.933	1.19
Y fixed	1.03	0.86	1.07	0.618	1.04	0.717	0.805	0.679	0.531
pThr fixed	0.842	0.433	0.621	0.672	0.372	0.756	0.666	0.932	0.844
pTyr fixed	0.519	0.272	0.651	0.434	0.732	0.712	0.693	0.806	0.983

STK25, construct: Full length (from UniProt O00506)
relative phosphorylation
Conditions	at +1	at +2	at +3	at +4	at -1	at -2	at -3	at -4	at -5
A fixed	0.561	0.853	0.857	0.981	0.996	1.07	0.986	1	1.24
D fixed	0.151	0.326	0.447	0.515	0.772	0.464	0.671	0.752	0.774
E fixed	0.166	0.195	0.404	0.454	0.538	0.398	0.604	0.865	0.682
F fixed	1.28	0.564	1.01	0.718	0.756	1.19	0.875	0.975	0.922
G fixed	0.443	1.13	1.17	1.12	1.98	1.26	1.27	1.1	1.21
H fixed	0.884	1.24	1.07	1.2	1.3	1.43	1.24	1.11	1.15
I fixed	1.87	0.572	0.895	0.845	0.453	0.86	0.777	0.775	0.801
K fixed	0.669	2.4	1.64	2.01	1.23	1.04	1.31	1.28	1.52
L fixed	1.56	0.486	0.865	0.743	0.901	0.791	0.844	0.8	0.758
M fixed	1.89	0.735	0.926	0.822	1.14	0.879	0.974	0.99	0.899
N fixed	0.474	1.08	0.985	0.919	1.26	1.01	1.13	1.03	0.902
P fixed	0.175	0.616	0.787	1.11	0.599	0.693	0.876	0.871	1
Q fixed	0.683	0.785	0.819	0.856	0.795	0.773	0.865	0.868	0.846
R fixed	0.947	3.75	2.26	2.19	1.66	1.25	1.38	1.3	1.38
V fixed	1.59	0.626	0.829	0.718	0.462	0.78	0.711	0.849	0.848
W fixed	2.17	0.772	0.979	0.943	0.862	1.33	1.26	1.25	1.02
Y fixed	1.48	0.872	1.06	0.852	1.3	1.79	1.23	1.18	1.05
pThr fixed	0.459	0.376	0.534	0.435	0.45	0.615	0.774	0.98	0.918
pTyr fixed	0.327	0.223	0.456	0.372	0.866	0.691	0.858	0.837	0.866

IKBKB, construct: Full length (from UniProt O14920)
relative phosphorylation
Conditions	at +1	at +2	at +3	at +4	at -1	at -2	at -3	at -4	at -5
A fixed	0.6	0.901	1.06	1.08	0.811	0.919	0.94	1.15	1.22
D fixed	0.469	1.2	1.65	1.46	1.1	0.397	0.912	1.57	1.71
E fixed	0.544	1.27	1.65	1.43	0.941	0.805	1.05	1.8	1.52
F fixed	1.55	0.676	1.01	0.834	0.909	2.22	1.07	0.751	0.995
G fixed	1.12	1.2	1.46	1.09	0.478	0.442	1	1.24	1.23
H fixed	0.745	1.39	1.11	0.922	1.21	1.47	1.19	0.94	1.01
I fixed	2.06	0.812	0.71	0.769	0.89	1.11	0.762	0.749	0.741
K fixed	0.268	0.805	0.68	0.827	1.03	0.408	0.878	0.741	0.714
L fixed	2.05	0.783	0.816	0.81	1.22	1.48	0.699	0.754	0.687
M fixed	1.66	0.701	0.8	0.995	1.09	1.16	0.764	0.907	0.738
N fixed	0.613	1.5	1.1	1.08	1.15	1.06	1.01	0.988	1.03
P fixed	0.228	1.13	0.931	1.43	1.06	0.371	1.31	1.17	0.973
Q fixed	0.576	1.25	0.91	1.06	0.989	0.73	0.922	0.878	0.908
R fixed	0.362	1.08	0.608	0.672	1.07	0.583	1.76	0.975	0.842
V fixed	1.38	1.1	0.688	0.738	0.998	0.762	0.843	0.804	0.89
W fixed	1.46	0.525	0.904	1.02	0.895	0.85	0.885	0.733	0.926
Y fixed	1.33	0.665	0.917	0.773	1.16	2.23	1.01	0.851	0.864
pThr fixed	0.817	1.38	0.898	1.53	1.01	1.08	1.55	1.97	1.93
pTyr fixed	1.03	1.32	1.23	1.06	1.77	4.33	2.11	1.48	1.51

MAP3K5, construct: aa659-951 (from UniProt Q99683)
relative phosphorylation
Conditions	at +1	at +2	at +3	at +4	at -1	at -2	at -3	at -4	at -5
A fixed	0.385	0.72	0.897	0.901	0.825	1.66	1.44	1.09	1.01
D fixed	0.255	0.881	0.707	0.815	0.699	0.504	0.689	0.908	0.899
E fixed	0.344	0.473	0.652	0.812	0.685	0.471	0.738	0.906	0.815
F fixed	2	1.32	1.22	0.964	1.08	0.77	0.826	1.04	1.17
G fixed	0.324	0.521	0.951	0.926	1.58	1.12	0.979	1.08	1.28
H fixed	1.1	1.06	1.04	1.12	1.06	0.985	1.24	1.02	1.19
I fixed	2.04	0.648	1.01	0.717	0.507	1.12	0.905	0.897	0.75
K fixed	0.375	1.08	1.04	1.88	1.13	0.61	1.02	0.913	1.13
L fixed	1.33	0.806	1.03	0.943	0.993	1.12	1.01	0.827	0.747
M fixed	0.894	0.812	1.06	0.877	1.06	1.17	0.894	1.04	0.88
N fixed	0.382	0.615	0.793	0.743	1.04	1.36	0.989	0.807	0.792
P fixed	0.352	0.543	1.03	1.02	1.07	1.22	1.36	1.22	1.41
Q fixed	0.498	0.64	0.806	0.89	0.775	0.987	1	1.01	0.919
R fixed	0.401	1.34	1.31	1.5	1.6	0.941	1.04	0.965	1.08
V fixed	1.78	0.645	1.01	0.723	0.54	1.09	0.835	1.12	0.836
W fixed	1.97	1.32	1.14	1.33	0.981	0.777	1.12	1.08	0.996
Y fixed	2.56	3.57	1.29	0.846	1.37	1.09	0.904	1.07	1.09
pThr fixed	0.556	0.528	0.673	0.597	0.672	0.847	0.914	0.985	1
pTyr fixed	0.623	0.518	0.863	0.704	1.47	0.793	0.884	1.04	1.24

Source: the supplement of paper PMC9876800
